Biological target: T1, LRP6 (Homo sapiens, UniProt O75581)
T1 construct: made in house; host or cells: Tni insect cells (baculovirus, secreted)
T1 sequence (O75581 20-1253): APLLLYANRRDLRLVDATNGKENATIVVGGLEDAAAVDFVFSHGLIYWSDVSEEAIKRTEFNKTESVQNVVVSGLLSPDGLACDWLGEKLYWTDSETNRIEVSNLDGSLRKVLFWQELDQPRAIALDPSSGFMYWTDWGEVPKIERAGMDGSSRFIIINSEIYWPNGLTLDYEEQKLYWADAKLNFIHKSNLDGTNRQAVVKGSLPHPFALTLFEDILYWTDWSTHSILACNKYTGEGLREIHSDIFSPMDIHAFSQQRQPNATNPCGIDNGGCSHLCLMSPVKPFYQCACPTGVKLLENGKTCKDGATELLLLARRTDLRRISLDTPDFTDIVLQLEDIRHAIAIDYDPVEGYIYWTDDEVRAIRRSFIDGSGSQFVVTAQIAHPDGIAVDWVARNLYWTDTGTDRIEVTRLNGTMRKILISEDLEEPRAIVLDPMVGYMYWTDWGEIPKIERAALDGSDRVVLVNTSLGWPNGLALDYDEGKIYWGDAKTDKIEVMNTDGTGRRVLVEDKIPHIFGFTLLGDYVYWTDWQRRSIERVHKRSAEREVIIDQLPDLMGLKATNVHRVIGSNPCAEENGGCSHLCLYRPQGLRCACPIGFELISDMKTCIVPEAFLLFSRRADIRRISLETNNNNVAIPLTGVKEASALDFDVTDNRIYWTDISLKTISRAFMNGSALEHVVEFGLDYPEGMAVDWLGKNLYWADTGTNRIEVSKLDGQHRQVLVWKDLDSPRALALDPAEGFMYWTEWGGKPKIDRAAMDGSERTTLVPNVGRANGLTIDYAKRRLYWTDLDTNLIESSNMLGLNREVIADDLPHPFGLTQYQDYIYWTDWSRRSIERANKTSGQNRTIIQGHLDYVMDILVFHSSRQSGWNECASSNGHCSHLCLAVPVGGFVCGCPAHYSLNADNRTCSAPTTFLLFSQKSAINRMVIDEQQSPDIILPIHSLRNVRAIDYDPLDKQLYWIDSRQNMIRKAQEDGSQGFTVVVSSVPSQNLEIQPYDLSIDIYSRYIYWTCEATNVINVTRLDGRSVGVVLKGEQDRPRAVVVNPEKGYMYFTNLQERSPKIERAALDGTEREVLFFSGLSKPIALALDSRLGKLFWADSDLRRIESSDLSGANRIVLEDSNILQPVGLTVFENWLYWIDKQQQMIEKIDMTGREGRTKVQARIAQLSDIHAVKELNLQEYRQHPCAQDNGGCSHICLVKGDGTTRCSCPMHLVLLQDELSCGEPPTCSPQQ
Assay: Biolayer interferometry binding to any LRP6 construct tested
Method: Binding kinetics were measured by biolayer interferometry using an Octet Red instrument (ForteBio) as previously described (11). Streptavidin (SA) biosensors were loaded with biotinylated hLRP6 in 50 mMTris, pH 8, 300 mM NaCl, 5% (v/v) glycerol, and 0.05% (w/v) Triton X-100. The loaded biosensors were washed in the same buffer before carrying out association and dissociation measurements for the indicated times. The Kd of each interaction was determined using steady state-analysis through the Octet Red software v6.3. Each reported value represents an average of three or more experiments at different concentrations, with a fitted experimental curve for which the square of the correlation coefficient (R^2) is above 0.96.
The interaction of the different Dkks and sclerostin with various domains of LRP6 was measured using a biolayer interferometry assay (11). Purified receptors contained individual β-propeller-EGF-like units (E1, E2, or E4), two β-propellers (E1E2 or E3E4), or four β-propellers (E1E4))—as follows:
Human LRP6: construct E1E4-amino acids A20-Q1253 of LPR6; construct E1E2-amino acids A20-E631 of LPR6; construct E3E4 amino acids E631-Q1253 of LPR6; construct E1-amino acids A20-D325 of LPR6; construct E2-amino acids […]-E631 of LPR6; construct E4-T933-Q1253. The individual LRP6 β-propeller E3 could not be expressed.

- binding to any LRP6 construct tested: failed to bind
Substance: Dkk3: Dickkopf 3, carrier-free protein from R&D Systems

Reference: US20140235820A1, “METHODS AND COMPOSITIONS FOR MODULATING THE Wnt PATHWAY” (Genentech, Inc., priority 2010, published 2014)
